The source of these data is ChEMBL document CHEMBL1143427, “Interactions of ceftobiprole with beta-lactamases from molecular classes A to D” (Antimicrob Agents Chemother, 2007).

What all share (details): Enterobacter cloacae
Substrate in data set [1]: CO/N=C(\C(=O)N[C@@H]1C(=O)N2C(C(=O)[O-])=C(C[N+]3(C)CCCC3)CS[C@H]12)c1csc(N)n1
Description: (§1) Ratio of Kcat to Km of Enterobacter cloacae 4092 AmpC (E2) assessed as drug hydrolysis by spectrophotometry
Substrate in data set [2]: O=C(Cc1cccs1)N[C@@H]1C(=O)N2C(C(=O)O)=C(/C=C/c3ccc([N+](=O)[O-])cc3[N+](=O)[O-])CS[C@H]12
Description: as §1
Substrate in data set [3]: CC(C)(O/N=C(\C(=O)N[C@@H]1C(=O)N2C(C(=O)[O-])=C(C[n+]3ccccc3)CS[C@H]12)c1csc(N)n1)C(=O)O
Description: (§2) Ratio of Kcat to Km of Enterobacter cloacae 4080 AmpC (P99) assessed as drug hydrolysis by spectrophotometry
Substrate in data set [4]: CC1(C)S[C@@H]2[C@H](NC(=O)Cc3ccccc3)C(=O)N2[C@H]1C(=O)O
Description: as §2
Substrate in data set [5]: CO/N=C(\C(=O)N[C@@H]1C(=O)N2C(C(=O)[O-])=C(C[N+]3(C)CCCC3)CS[C@H]12)c1csc(N)n1
This is another data set of the same source.
Description: as §2

Substrate in data set [6]: Nc1nc(/C(=N/O)C(=O)N[C@@H]2C(=O)N3C(C(=O)O)=C(/C=C4\CCN([C@@H]5CCNC5)C4=O)CS[C@H]23)ns1
Description: as §2
Substrate in data set [7]: O=C(Cc1cccs1)N[C@@H]1C(=O)N2C(C(=O)[O-])=C(C[n+]3ccccc3)CS[C@H]12
Description: as §2

B1: Beta-lactamase (Enterobacter cloacae), P05364 (protein)
chain: MMRKSLCCALLLGISCSALATPVSEKQLAEVVANTITPLMKAQSVPGMAVAVIYQGKPHYYTFGKADIAANKPVTPQTLFELGSISKTFTGVLGGDAIARGEISLDDAVTRYWPQLTGKQWQGIRMLDLATYTAGGLPLQVPDEVTDNASLLRFYQNWQPQWKPGTTRLYANASIGLFGALAVKPSGMPYEQAMTTRVLKPLKLDHTWINVPKAEEAHYAWGYRDGKAVRVSPGMLDAQAYGVKTNVQDMANWVMANMAPENVADASLKQGIALAQSRYWRIGSMYQGLGWEMLNWPVEANTVVEGSDSKVALAPLPVAEVNPPAPPVKASWVHKTGSTGGFGSYVAFIPEKQIGIVMLANTSYPNPARVEAAYHILEALQ
For orientation: kcat/Km means the turnover number divided by the Michaelis constant. Consider B1, for which the kcat/Km in data set [1] was below 33 M⁻¹ s⁻¹; in data set [2] it was 1e+07 M⁻¹ s⁻¹; in data set [3] it was 7200 M⁻¹ s⁻¹; in data set [4], 6.8e+06 M⁻¹ s⁻¹; in data set [5] it was 4000 M⁻¹ s⁻¹; in data set [6], 22000 M⁻¹ s⁻¹. In addition, in data set [7], the kcat/Km was found to be 7.6e+06 M⁻¹ s⁻¹.
